Laboratory results published in patent publication US20230020729A1 (Memorial Sloan Kettering, published 2023).

T1: human Fc Receptor-Like 5 (FcRL5), full length, expressed on cells (human, UniProt Q96RD9 16-977)
T1 construct: also called CD307e; IRTA2
T1 sequence: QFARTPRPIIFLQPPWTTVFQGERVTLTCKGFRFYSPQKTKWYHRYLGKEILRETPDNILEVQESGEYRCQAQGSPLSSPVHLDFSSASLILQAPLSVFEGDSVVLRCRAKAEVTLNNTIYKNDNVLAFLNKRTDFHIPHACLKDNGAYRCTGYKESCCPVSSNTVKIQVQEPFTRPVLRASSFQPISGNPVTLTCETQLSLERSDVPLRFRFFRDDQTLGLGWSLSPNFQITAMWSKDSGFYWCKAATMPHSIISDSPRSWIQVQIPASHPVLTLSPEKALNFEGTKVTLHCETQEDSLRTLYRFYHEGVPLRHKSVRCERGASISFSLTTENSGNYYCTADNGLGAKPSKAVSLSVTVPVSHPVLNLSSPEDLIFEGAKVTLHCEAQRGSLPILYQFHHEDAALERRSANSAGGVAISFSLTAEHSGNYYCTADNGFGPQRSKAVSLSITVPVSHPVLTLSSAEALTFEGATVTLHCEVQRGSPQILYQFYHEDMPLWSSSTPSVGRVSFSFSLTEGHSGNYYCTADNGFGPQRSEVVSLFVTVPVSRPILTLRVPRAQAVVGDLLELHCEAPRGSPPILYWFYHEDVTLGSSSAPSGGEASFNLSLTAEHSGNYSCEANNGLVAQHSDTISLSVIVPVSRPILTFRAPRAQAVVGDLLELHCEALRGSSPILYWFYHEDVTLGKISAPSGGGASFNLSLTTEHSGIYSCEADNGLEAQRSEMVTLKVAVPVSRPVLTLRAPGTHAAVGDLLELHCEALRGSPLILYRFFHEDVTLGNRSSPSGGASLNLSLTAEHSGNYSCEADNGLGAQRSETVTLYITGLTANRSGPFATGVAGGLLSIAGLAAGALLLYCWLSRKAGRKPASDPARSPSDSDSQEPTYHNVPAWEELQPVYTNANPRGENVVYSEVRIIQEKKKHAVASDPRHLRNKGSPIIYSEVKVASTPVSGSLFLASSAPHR


biological target: T1, human Fc Receptor-Like 5 (FcRL5), full …; test: scFv phage: ELISA on His-tag FcRL5, flow cytometry on FcRL5-overexpressing 3T3 and Raji cells

Binder	binding result
ET200-007 scFv (scFv, VL-linker-VH; screened as scFv phage clone) scFv: SYVLTQPLSVSVAPGKTARITCGGNNIGSKTVHWYQQKPGQAPVLVIYYDSDRPSGIPERFSGSNSGNTATLTISRVEAGDEADYYCQVWDSSSDHRVFGGGTKLTVLGSRGGGGSGGGGSGGGGSLEMAQVQLQESGPGLVKPSETLSLTCNVSGYSISSGYFWGWIRQPPGKGLEWIGSIYHSRSTYYNPSLKSRVTISVDTSKNQFSLKLNSVTAADTAVYYCARGYGYFDYWGQGTLVTVSS	binds
ET200-102 scFv (scFv, VL-linker-VH; screened as scFv phage clone) scFv: QSVVTQPPSVSAAPGQKVTISCSGSSSNIGNNYVSWYQQLPGTAPKLLIYDNNKRPSGIPDRFSGSKSGTSATLGITGLQTGDEADYYCGTWDSSLSAYVFGTGTKVTVLGSRGGGGSGGGGSGGGGSLEMAQVQLVQSGAEVKKPGASVKVSCKASGYTFTNYALHWVRQAPGQGLEWMAWINGGNGNTKYSQNFQGRVTITRDTSASTAYMELSSLRSEDTAVYYCAKPEETAGTIHFDYWGQGTPVTVSS	binds
ET200-107 scFv (scFv, VL-linker-VH; screened as scFv phage clone) scFv: QSVVTQPPSVSAAPGEKVTISCSGSNFNVGNNDVSWYQQLPGAAPKLLIYDNNKRPSGIPDRFSGSKSGTSATLDITGLHSDDEADYYCGTWDSSLNTGGVFGTGTKVTVLGSRGGGGSGGGGSGGGGSLEMAEVQLVQSGAEVKKPGASVKVSCKASGYTFTSYTISWVRQAPGQGLEWMGWISTYNGLTNYAQNLQGRVTMTTDTFTTTAYMELRSLRSDDTAVYYCVREGSPDYGDFASFDYWGQGTLVTVSS	binds
ET200-108 scFv (scFv, VL-linker-VH; screened as scFv phage clone) scFv: QSVLTQPPSVSAPPGQKVTISCSGSSSNIGNNYVSWYQQFPGTAPKLLIYDNNKRPSGISDRFSGSKSGTSATLGIAGLQTGDEADYYCGTWDTSLSGFYVFGSGTKVTVLGSRGGGGSGGGGSGGGGSLEMAEVQLVQSGAEVKKPGASVKVSCKASGYTFTSYTISWVRQAPGQGLEWMGWISTYNGLTNYAQNLQGRVTMTTDTFTTTAYMELRSLRSDDTAVYYCVREGSPDYGDFASFDYWGQGTLVTVSS	binds
ET200-097 scFv (scFv, VL-linker-VH; screened as scFv phage clone) scFv: LPVLTQPPSVSVSPGQTAIITCSGDKLGEKYVSWYQQKPGQSPVLVIDQDTRRPSGIPERFSGSNSGTTATLTISGTQAMDEADYYCQAWDRGVVFGGGTKLTVLGSRGGGGSGGGGSGGGGSLEMAEVQLVESGGDLVQPGRSLRLSCAASGFTFNDYAMHWVRQAPGKGLEWVSGISWSGNNIGYADSVKGRFTISRDNAKNSLYLQMNSLRAEDTALYYCAKDSIRYGITWGGFDYWGQGTLVTVSS	binds
ET200-101 scFv (scFv, VL-linker-VH; screened as scFv phage clone) scFv: QAVLTQPPSASGAPGQRVTVSCSGSNSNIGSNYVNWYQQFPGTAPKLLMYSSSQRPSGVPDRFSGSKSGTSASLAISGLHSEDEADYYCATWDDSLNAWVFGGGTKLTVLGSRGGGGSGGGGSGGGGSLEMAEVQLVQSGAEVRKPGASVKVSCKTSGYTFTWYAIHWVRQAPGQRLEWMGWINAGSGNTKYSQKFQGRVTLTRDTSASTAYMELSSLRSDDTAVYYCARPNNYGSGGDVFDIWGQGTMVTVSS	binds
ET200-103 scFv (scFv, VL-linker-VH; screened as scFv phage clone) scFv: QAVLTQPHSVSESPGKTVTISCTRSSGSIASNYVQWYQQRPGSAPTTVIYEDNQRPSGVPDRFSGSIDSSSNSASLTISGLKTEDEADYYCQSYDSTITVFGGGTKLTVLGSRGGGGSGGGGSGGGGSLEMAQVQLVQSGAEVKKPGSSVKVSCKASGGTFSSYAISWVRQAPGQGLEWMGGIIPIFGTANYAQKFQGRVTITADESTSTAYMELSSLRSEDTAVYYCAGEGYYDSSGYSNGDAFDIWGQGTMVTVSS	binds
ET200-098 scFv (scFv, VL-linker-VH; screened as scFv phage clone) scFv: QPVLTQPPSVSKGLRQTATLTCTGNSNNVGNLGVAWLQQHQGHPPKLLSYRNNNRPSGISERLSASRSGNTASLTITGLQPEDEADYYCSAWDSSLSAWVFGGGTKLTVLGSRGGGGSGGGGSGGGGSLEMAEVQLVESGGVVVQPGGSLRLSCAASGFTFDDYAMHWVRQAPGKGLEWVSLINWDGGSTYYADSVKGRFTISRDNSKNSLYLQMNSLRAEDTALYYCAKGMGLRAFDYWGQGTLVTVSS	binds
ET200-105 scFv (scFv, VL-linker-VH; screened as scFv phage clone) scFv: SYVLTQPPSVSVSPGQTASITCSGDRLTNKYVSWYQQKPGQSPVLVIYEDAKRPSGIPARFSGSNSGNTATLTISGTQAMDESEYYCQAWDSSVVVFGGGTKLTVLGSRGGGGSGGGGSGGGGSLEMAEVQLVESGGGLVQPGRSLRLSCAASGFTFDDYAMHWVRQAPGKGLEWVSGISWNSGSIGYADSVKGRFTISRDNAKNSLYLQMNSLRDEDTALYYCAKDRGGGVIVKDAFDIWGQGTMVTVSS	binds
ET200-099 scFv (scFv, VL-linker-VH; screened as scFv phage clone) scFv: QSVLTQPPSASGTPGQRVTISCSGSSSNIGSNTVNWYQQLPGTAPKLLIYSNDQRPSGVPDRFSGSKSGTSASLAISGLQSEDEADYYCASWDDSLNGRYVFGTGTKVTVLGSRGGGGSGGGGSGGGGSLEMAQVQLVQSGAEVRKPGASVKVSCKTSGYTFSWYAIHWVRQAPGQRLEWMGWINAGNGNTKYSQKFQGRVSLTRDTSASTAYMELSSLRSDDTAVYYCARPDNYGSGGDVFDIWGQGTMVTVSS	binds
ET200-106 scFv (scFv, VL-linker-VH; screened as scFv phage clone) scFv: SYELTQPPAASGTPGQRVTISCSGGVSNIGSGALNWYQQLPGTAPKLLIYSYNQRPSGVSDRFSGSRSATSASLAISGLQSEDEADYYCATWDDSVNGWVFGGGTKLTVLGSRGGGGSGGGGSGGGGSLEMAEVQLVESGAEVKKPGDSVKVSCKPSGYNFLNYGINWVRQAPGQGLEWMGWISTYTGNTNYAQKLQGRVTFTTDTSTSTAYMEMRSLRSDDTAVYYCARQQGGGWYDVWGQGTLVTVSS	binds
ET200-100 scFv (scFv, VL-linker-VH; screened as scFv phage clone) scFv: NFMLTQPHSVSESPGKTVTISCTRSSGSIASNFVQWYQQRPGSAPTPMIYEDNNRPPGVPDRFSASVDSSSNSASLTISGLKTEDEADYYCQSYDTSNVVFGGGTKLTVLGSRGGGGSGGGGSGGGGSLEMAEVQLVESGGGLVQPGGSLRLSCAASGFTFSSYEMNWVRQAPGKGLEWVSYISSSGSTIYYADSVKGRFTISRDNAKNSLYLQMNSLRAEDTAVYYCARWDYGMDVWGQGTTVTVSS	binds
ET200-104 scFv (scFv, VL-linker-VH; screened as scFv phage clone) scFv: NFMLTQPHSVSESPGKTVTISCTRSSGSIASNYVQWYQQRPGSAPTTVIYEDNQRPSGVPDRFSGSIDSSSNSASLTISGLKTEDEADYYCQSYDSSNVVFGGGTKVTVLGSRGGGGSGGGGSGGGGSLEMAEVQLVESGGGLVQPGGSLRLSCAASGFTFSSYEMNWVRQAPGKGLEWVSYISSSGSTIYYADSVKGRFTISRDNAKNSLYLQMNSLRAEDTAVYYCARWDYGMDVWGQGTTVTVSS	binds
ET200-109 scFv (scFv, VL-linker-VH; screened as scFv phage clone) scFv: LPVLTQPPSASATPGQRVTISCSGTTSNIGSNTVHWYQQLPGTAPKLLIYNNNQRPSGVPDRFSGSKSGTSASLAISGLRSEDEATYSCATWDDSLSGVVFGGGTKLTVLGSRGGGGSGGGGSGGGGSLEMAEVQLVQSGAEVKKPGSSVKVSCKASGGTFSSYAISWVRQAPGQGLEWMGGIIPIFGTANYAQKFQGRVTITADESTSTAYMELSSLRSEDTAVYYCARDPAYGDYEYDAFDIWGQGTMVTVSS	binds
